The source of these data is PMC9605875 (Cell Host & Microbe, 2022).

The target of this assay is Wild-type RABV-G, untagged, full length, on transfected Expi293 cells (Rabies virus, Pasteur (PV) ectodomain; …, UniProt P08667, strain). Briefly: flow cytometry on cells. The conditions noted are these: one partner purified.

B1: 1112-1 IgG (antibody, V domains shown)
VH: QVQLQQPGAELLKPGTSMKLSCKASGYTFSNYWMHWVKLRPGQGFEWIGEINPFNGGTNFNEKFKSKATLTVDRSSSTAYMQLSSVTSEDSAVYYCTIPLSDYGDWFFAVWGAGTTVTVSS
VL: DIVMTQSHKFMSTSIGDRVSITCKASQDVSTAVAWYRQKPGQSPKLLIYSASYRSTGVPDRFTGSGSGTDFTFTISSVQAEDLAVFYCQQHYSAPLTFGAGTKLELK
notes: copies: 2 + 2
Regarding B1, the binding result is on record as “binds”.

B2: 17C7 IgG (antibody, V domains shown)
VH: EVQLVESGGGVVQPGRSLRLSCAASGFTFSTYAMHWVRQAPGKGLEWVAVVSYDGRTKDYADSVKGRFTISRDNSKNTLYLQMNSLRTEDTAVYFCARERFSGAYFDYWGQGTLVTVSS
VL: EIVLTQSPATLSLSPGERATLSCRASQSVSSYLAWYQQKPGQAPRLLIYDASNRATGIPARFSGSGSGTDFTLTISSLEPEDFAVYSCQQRNNWPPTFGGGTKVEIK
notes: IgG1; copies: 2 + 2
For B2, the binding result is on record as “binds”.
